The text below walks through data of patent US20210213134A1, “THIOL-BASED MULTIVALENT DRUG DELIVERY COMPOSITIONS” (ORPRO THERAPEUTICS, INC., priority 2018, published 2021).

In assay [1] the target is insulin (fully disulfide-bonded heterodimeric insulin). Put plainly: cell-based or functional assay.
Assay [2] has the same target. Put plainly: cell-based or functional assay. This is another data set of the same source.

Like-named read-outs stand apart in the source and are kept apart here.

B1: reduced (active) C35STRX (enzyme)
chain: MVKQIESKTAFQEALDAAGDKLVVVDFSATWCGPSKMIKPFFHSLSEKYSNVIFLEVDVDDCQDVASECEVKCMPTFQFFKKGQKVGEFSGANKEKLEATINELV
modifications: active site Cys32 in the reduced state
Turning to B1, in assay [1], the % reduction C35STRX (insulin heterodimer peak, RP-HPLC), 90 min came to 97.7%; the column 'C35STRX' (taken as insulin heterodimer peak area, RP-HPLC), 0 min is 10600; the column 'C35STRX' (taken as insulin heterodimer peak area, RP-HPLC), 90 min is 243. Moreover, in assay [2], the % reduction C35STRX (insulin heterodimer peak, RP-HPLC), 0 min came out at 0%; the % reduction C35STRX (insulin heterodimer peak, RP-HPLC), 90 min stood at 99.4%; the column 'C35STRX' (taken as insulin heterodimer peak area, RP-HPLC), 0 min came out at 8520; the column 'C35STRX' (taken as insulin heterodimer peak area, RP-HPLC), 90 min is 50.2.

B2: Azido-C35STRX (C35STRX with azido-PEG linkers on Lys residues, reduced) (enzyme)
chain: B1 chain
modifications: azido-PEG chains (NHS-PEG4-Azide) on Lys residues, average of 11 per molecule; active site Cys reduced with DTT
In assay [1], B2 returned a % reduction Azido-C35STRX (insulin heterodimer peak, RP-HPLC), 0 min of 0%; a % reduction Azido-C35STRX (insulin heterodimer peak, RP-HPLC), 90 min of 33.1%; a column 'Azido-C35STRX' (taken as insulin heterodimer peak area, RP-HPLC), 0 min of 10200; a column 'Azido-C35STRX' (taken as insulin heterodimer peak area, RP-HPLC), 90 min of 6840. Besides, in assay [2], the % reduction Azido-C35STRX (insulin heterodimer peak, RP-HPLC), 90 min worked out at 32.7%; the attenuation of the ability to reduce insulin disulfides vs. unconjugated monocysteinic thioredoxin came to 70%; the column 'Azido-C35STRX' (taken as insulin heterodimer peak area, RP-HPLC), 0 min came to 8960; the column 'Azido-C35STRX' (taken as insulin heterodimer peak area, RP-HPLC), 90 min was found to be 6030.
